Measured values published in PMC11417369, “DNA sequence and chromatin differentiate sequence-specific transcription factor binding in the human malaria parasite Plasmodium falciparum”.

Target: T1, HDP1 homeodomain-like (Plasmodium falciparum, UniProt Q8IKH4 2990-3078)
T1 sequence: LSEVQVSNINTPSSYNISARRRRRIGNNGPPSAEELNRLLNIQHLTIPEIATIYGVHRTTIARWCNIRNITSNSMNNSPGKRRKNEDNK
Assay: gcPBM; about 25 ug protein; PBS, 1% milk, 0.2 mg/ml BSA, salmon testes DNA, 0.03% Triton X-100
Settings: tags: N-terminal GST (pGEX-4T-1), kept; chain copies: 2; label: surface-attached array probe

B1: GTGCAC_site10269 (dsDNA)
DNA 1: TGTGTATATATGCTGGTGCAACTTTAAAAAATAATC
DNA 2: GATTATTTTTTAAAGTTGCACCAGCATATATACACA
binding signal: 9.48 ln median PBM intensity, better of two orientations

B2: GTGCAC_site10399 (dsDNA)
DNA 1: CATATTATTATTTTGGTGCATACTTATATATATTTT
DNA 2: AAAATATATATAAGTATGCACCAAAATAATAATATG
binding signal: 9.47 ln median PBM intensity, better of two orientations

B3: GTGCAC_site10762 (dsDNA)
DNA 1: TGTAAAATATAAAAAGTGCATTTCTTTTAATATGAT
DNA 2: ATCATATTAAAAGAAATGCACTTTTTATATTTTACA
binding signal: 7.62 ln median PBM intensity, better of two orientations

B4: GTGCAC_site9450 (dsDNA)
DNA 1: ATAACAAAATGAAGAGTGCATTACCAAGTGGGTAAA
DNA 2: TTTACCCACTTGGTAATGCACTCTTCATTTTGTTAT
binding signal: 7.77 ln median PBM intensity, better of two orientations

B5: GTGCAC_site9698 (dsDNA)
DNA 1: GACTTTTCATTTATAGTGCAAGTTTTTTTTTTTTTT
DNA 2: AAAAAAAAAAAAAACTTGCACTATAAATGAAAAGTC
binding signal: 7.84 ln median PBM intensity, better of two orientations

B6: GTGCAC_site10533 (dsDNA)
DNA 1: CGTAAATTTTTCTAAGTGCATGTTAATTTTTCAATT
DNA 2: AATTGAAAAATTAACATGCACTTAGAAAAATTTACG
binding signal: 7.89 ln median PBM intensity, better of two orientations

B7: GTGCAC_site10509 (dsDNA)
DNA 1: ACAACAATTCACTTGATGCACTAACCAAAAAAATAA
DNA 2: TTATTTTTTTGGTTAGTGCATCAAGTGAATTGTTGT
binding signal: 7.97 ln median PBM intensity, better of two orientations

B8: GTGCAC_site10244 (dsDNA)
DNA 1: ATCCGCTGCCTTTTGGTGCAGAACATAATCATGTAA
DNA 2: TTACATGATTATGTTCTGCACCAAAAGGCAGCGGAT
binding signal: 8.03 ln median PBM intensity, better of two orientations

B9: GTGCAC_site10652 (dsDNA)
DNA 1: ATATATATATTTTGGTAGCACCTCCTTTTTTTTTTT
DNA 2: AAAAAAAAAAAGGAGGTGCTACCAAAATATATATAT
binding signal: 8.08 ln median PBM intensity, better of two orientations

B10: GTGCAC_site10061 (dsDNA)
DNA 1: AAAAAAAAAAAAAGAGTGCAAACTATGATAATTTAA
DNA 2: TTAAATTATCATAGTTTGCACTCTTTTTTTTTTTTT
binding signal: 8.19 ln median PBM intensity, better of two orientations

B11: GTGCAC_site10728 (dsDNA)
DNA 1: TCATACATGGTGTGTTTGCACTTGACCTATATTCAT
DNA 2: ATGAATATAGGTCAAGTGCAAACACACCATGTATGA
binding signal: 8.23 ln median PBM intensity, better of two orientations

B12: GTGCAC_site10737 (dsDNA)
DNA 1: TAATTTCTTTAGGGGGTGCTTTTATAGTTTTTATTA
DNA 2: TAATAAAAACTATAAAAGCACCCCCTAAAGAAATTA
binding signal: 8.27 ln median PBM intensity, better of two orientations

B13: GTGCAC_site9778 (dsDNA)
DNA 1: CACCCTTTACACAAGGTGCATACTTTATTATATTTT
DNA 2: AAAATATAATAAAGTATGCACCTTGTGTAAAGGGTG
binding signal: 8.31 ln median PBM intensity, better of two orientations

B14: GTGCAC_site10078 (dsDNA)
DNA 1: AATTATATATAAAAAGTGCAAAACGATAATTCATCA
DNA 2: TGATGAATTATCGTTTTGCACTTTTTATATATAATT
binding signal: 8.44 ln median PBM intensity, better of two orientations

B15: GTGCAC_site10413 (dsDNA)
DNA 1: AATAAATTCATGATAGTGCAAAAATTATTTTTGTTA
DNA 2: TAACAAAAATAATTTTTGCACTATCATGAATTTATT
binding signal: 8.5 ln median PBM intensity, better of two orientations

B16: GTGCAC_site9865 (dsDNA)
DNA 1: ATGTTGCTCATATGAGTGCACGTTTCATTTCAGTTT
DNA 2: AAACTGAAATGAAACGTGCACTCATATGAGCAACAT
binding signal: 8.54 ln median PBM intensity, better of two orientations

B17: GTGCAC_site10465 (dsDNA)
DNA 1: TGGTATGCAATATTGGTGCGTATATATTTTAAAGGG
DNA 2: CCCTTTAAAATATATACGCACCAATATTGCATACCA
binding signal: 8.58 ln median PBM intensity, better of two orientations

B18: GTGCAC_site10539 (dsDNA)
DNA 1: ATATATTTTTATATAGTGCAAGTAATAAAAAGGAAT
DNA 2: ATTCCTTTTTATTACTTGCACTATATAAAAATATAT
binding signal: 8.63 ln median PBM intensity, better of two orientations

B19: GTGCAC_site9692 (dsDNA)
DNA 1: TATATATGTATAAGAGTGCATATGCATATATGTATA
DNA 2: TATACATATATGCATATGCACTCTTATACATATATA
binding signal: 8.71 ln median PBM intensity, better of two orientations

B20: GTGCAC_site9712 (dsDNA)
DNA 1: GAAAGAAAATATTAAGTGCATATTTTAATGATACAA
DNA 2: TTGTATCATTAAAATATGCACTTAATATTTTCTTTC
binding signal: 8.76 ln median PBM intensity, better of two orientations

B21: GTGCAC_site10031 (dsDNA)
DNA 1: ATAAATAAAACAACAGTGCAATAAAATTAGTTGAGG
DNA 2: CCTCAACTAATTTTATTGCACTGTTGTTTTATTTAT
binding signal: 8.8 ln median PBM intensity, better of two orientations

B22: GTGCAC_site10338 (dsDNA)
DNA 1: TGATATAAAATTAAAGTGCAAAAAAAAAATAAAAAA
DNA 2: TTTTTTATTTTTTTTTTGCACTTTAATTTTATATCA
binding signal: 8.82 ln median PBM intensity, better of two orientations

B23: GTGCAC_site10110 (dsDNA)
DNA 1: AGTAGATTTTTATTAGTGCATTTTATACTACAAAAA
DNA 2: TTTTTGTAGTATAAAATGCACTAATAAAAATCTACT
binding signal: 8.86 ln median PBM intensity, better of two orientations

B24: GTGCAC_site10123 (dsDNA)
DNA 1: ATACCTATTTGATGAGTGCATTATCCAATATATGTA
DNA 2: TACATATATTGGATAATGCACTCATCAAATAGGTAT
binding signal: 8.94 ln median PBM intensity, better of two orientations

B25: GTGCAC_site10124 (dsDNA)
DNA 1: AAAAAAAAAAAATACGTGCACTATGATATATTATAT
DNA 2: ATATAATATATCATAGTGCACGTATTTTTTTTTTTT
binding signal: 9.03 ln median PBM intensity, better of two orientations

B26: GTGCAC_site10562 (dsDNA)
DNA 1: TTATTTATTTATATAGTGCAATAAACACATAAATAG
DNA 2: CTATTTATGTGTTTATTGCACTATATAAATAAATAA
binding signal: 9.14 ln median PBM intensity, better of two orientations

B27: GTGCAC_site9537 (dsDNA)
DNA 1: TAAATATATATATGTGTGCACTTCTTCATTTTAATA
DNA 2: TATTAAAATGAAGAAGTGCACACATATATATATTTA
binding signal: 9.22 ln median PBM intensity, better of two orientations

B28: GTGCAC_site9933 (dsDNA)
DNA 1: ATCTTATATATATGTGTGCACGTATATATAAGCAAT
DNA 2: ATTGCTTATATATACGTGCACACATATATATAAGAT
binding signal: 9.28 ln median PBM intensity, better of two orientations

B29: GTGCAC_site9856 (dsDNA)
DNA 1: TTAGCAGGACGTTTGGTGCACGTACTGTTTTTCTTT
DNA 2: AAAGAAAAACAGTACGTGCACCAAACGTCCTGCTAA
binding signal: 9.34 ln median PBM intensity, better of two orientations

B30: GTGCAC_site10125 (dsDNA)
DNA 1: ATATATATGGAAACAGTGCAATACATATATATATAT
DNA 2: ATATATATATATGTATTGCACTGTTTCCATATATAT
binding signal: 9.41 ln median PBM intensity, better of two orientations

B31: GTGCAC_site10445 (dsDNA)
DNA 1: ACGGAAAAAGAAAAGGTGCATATGGACACAATATAT
DNA 2: ATATATTGTGTCCATATGCACCTTTTCTTTTTCCGT
binding signal: 9.46 ln median PBM intensity, better of two orientations

B32: GTGCAC_negctrl_site272 (dsDNA)
DNA 1: AAGTTAGGATAGATCCAATAATTTTTAGTTTCTCTT
DNA 2: AAGAGAAACTAAAAATTATTGGATCTATCCTAACTT
binding signal: 5.7 ln median PBM intensity, better of two orientations

B33: GTGCAC_negctrl_site727 (dsDNA)
DNA 1: TTTTTCTTTTTCTTTTTTTCTTTTTTTTTTTTTTTC
DNA 2: GAAAAAAAAAAAAAAAGAAAAAAAGAAAAAGAAAAA
binding signal: 5.74 ln median PBM intensity, better of two orientations

B34: GTGCAC_negctrl_site165 (dsDNA)
DNA 1: AATCGATTGGATAATATTTTTTCTCTTAATTTTTTG
DNA 2: CAAAAAATTAAGAGAAAAAATATTATCCAATCGATT
binding signal: 5.77 ln median PBM intensity, better of two orientations

B35: GTGCAC_negctrl_site34 (dsDNA)
DNA 1: AACTTAAAAAAAAAAAAAAAAAAAAAAAAAAAAAAA
DNA 2: TTTTTTTTTTTTTTTTTTTTTTTTTTTTTTTAAGTT
binding signal: 5.77 ln median PBM intensity, better of two orientations

B36: GTGCAC_negctrl_site380 (dsDNA)
DNA 1: ATGGAAGGATAATAAAAACCTTTACCTTTCTGTTTA
DNA 2: TAAACAGAAAGGTAAAGGTTTTTATTATCCTTCCAT
binding signal: 5.82 ln median PBM intensity, better of two orientations

B37: GTGCAC_negctrl_site29 (dsDNA)
DNA 1: TAAGTCAAAACTTTTTTTTCTAAATTTCCATAATTA
DNA 2: TAATTATGGAAATTTAGAAAAAAAAGTTTTGACTTA
binding signal: 5.89 ln median PBM intensity, better of two orientations

B38: GTGCAC_negctrl_site466 (dsDNA)
DNA 1: AAAAAAATTAAAAATTAAAATTAAAAATAATATATA
DNA 2: TATATATTATTTTTAATTTTAATTTTTAATTTTTTT
binding signal: 5.91 ln median PBM intensity, better of two orientations

B39: GTGCAC_negctrl_site338 (dsDNA)
DNA 1: TTTTTTTTTTTTTTTTTTTTTTTGTCTTATTTTTTT
DNA 2: AAAAAAATAAGACAAAAAAAAAAAAAAAAAAAAAAA
binding signal: 5.91 ln median PBM intensity, better of two orientations

B40: GTGCAC_negctrl_site124 (dsDNA)
DNA 1: TTTTAAAATTTTTTTTTTTTTTTTTTATGAACAAGT
DNA 2: ACTTGTTCATAAAAAAAAAAAAAAAAAATTTTAAAA
binding signal: 5.92 ln median PBM intensity, better of two orientations

B41: GTGCAC_negctrl_site487 (dsDNA)
DNA 1: ATCATGGAAAAAACAAATGGGCTACATTACCTTTTG
DNA 2: CAAAAGGTAATGTAGCCCATTTGTTTTTTCCATGAT
binding signal: 5.94 ln median PBM intensity, better of two orientations

B42: GTGCAC_negctrl_site145 (dsDNA)
DNA 1: TTTGTAAAATAATATCTTTCATGTCCTTACTAATTA
DNA 2: TAATTAGTAAGGACATGAAAGATATTATTTTACAAA
binding signal: 5.95 ln median PBM intensity, better of two orientations

B43: GTGCAC_negctrl_site725 (dsDNA)
DNA 1: TTTTTAATCAGAAATATTTATTAAAGAATTTTATAG
DNA 2: CTATAAAATTCTTTAATAAATATTTCTGATTAAAAA
binding signal: 5.95 ln median PBM intensity, better of two orientations

B44: GTGCAC_negctrl_site2 (dsDNA)
DNA 1: ATATGAACAAAATAAATCTCTTCAAAAATAATGTTC
DNA 2: GAACATTATTTTTGAAGAGATTTATTTTGTTCATAT
binding signal: 5.98 ln median PBM intensity, better of two orientations
